B1: OR4K15 (parent)
chain: GUUAACGGUCAUAGGCCAUGGAAACUAGGAGCACCAUUUCGCUGCCAGUGAAGAAAUGAACAAAGAAAAUCUGGGCCAGGCAGGCAUCAAAAGAAAUAGUCUUGCGCUCAACCAGAAAGUCUGUAAUCAUUUUAAGGGUA

Variants of: B1
Test: self-cleavage, relative activity (ratio to wild type); higher = more cleavage; in vitro, sequencing; the parent is a self-cleaving ribozyme

Variant | self-cleavage
A134G A135U | 0.3
U19C U37A | 0.9
U43A U131C | 0.91
U72C U130C | 0.16
A56G A94G | 1.29
A11G U132A | 1.16
C107A A114U | 0
A11G A63G | 1.1
G7A A23G | 0.87
U12C A56G | 0.93
A18G A30U | 1.01
U49C A69G | 1.2
A23C U70A | 1.48
U12C A96U | 1.32
A86U U133C | 2.71
U43C A52U | 1.51
A4G U127C | 0.38
C46U U100C | 2.37
U19A A116G | 1.24
U43A U72C | 0.27
A67U G75A | 0.06
U57G A90G | 0.88
A59U U131C | 1.25
C17U U131A | 0.93

Variant | self-cleavage
A95G C101A | 0.52
A5G A33C | 1.28
A13C U120C | 1.78
A56G U122A | 0.63
A82G U97C | 0.5
A33U U120C | 1.32
U19C G50A | 1.38
A27G A95C | 0.48
A24U U103C | 0.25
U39C A67U | 1.9
A66G A92U | 1.98
A89G A90U | 1.39
U2G A11G | 1.05
A118U U131C | 0.37
A51G C71A | 0.89
U2C U108A | 0.01
A22G G28C | 1.42
C32U U39C | 1.47
A96G C109A | 0.37
C17A A56G | 2.2
A22G U57A | 1.15
U72A A92G | 0.26
A59G U108C | 0.02
U102C U103A | 0.2

Variant | self-cleavage
A47U A60U | 0.75
A96C U132C | 0.83
A5G G29A | 1.06
A92U U130C | 1.59
A92G U100C | 1.84
A33U A118C | 1.06
G15C | 1.05
A30U A82U | 0.23
A18C U127C | 0.63
U49C A114U | 0.12
A27G A129G | 1.06
U57C G74U | 0.39
A90G U108C | 0.02
A22U G65U | 0.33
A33G A92G | 1.01
A36U A62C | 0.87
A47G U57C | 0.69
U43A A140G | 2.11
A51G A55G | 0.97
U3C U12C | 1.24
A47C A52G | 0.57
U103C A117G | 0.71
A54U A82G | 0.64
G137U | 2.05

Variant | self-cleavage
A47U A110C | 0.13
G75A C81U | 0.21
A36C A96G | 1.9
A56G A91G | 0.51
U100C A116C | 0.97
A78U G119A | 0.39
A64U U102C | 2.23
A67G U70C | 1.05
A59G A95G | 1.68
A91G A116U | 0.12
U3G A140G | 1.39
A24G A98G | 0.51
A54U A91G | 0.86
U49C A78U | 0.37
A86U A125G | 0.95
A22U A47G | 1.13
A60G A92G | 0.87
C71A A86G | 0.28
U127A U133C | 2.29
A4U U132C | 2.14
A5G A116G | 0.47
A24G U26C | 0.81
A95G U127G | 2.23
G31C A56G | 1.63

Variant | self-cleavage
A125G | 0.56
U102C A114G | 0.68
A60G U130C | 1.07
A36U C105U | 0.17
U72C A94G | 0.07
A22G U87A | 1.28
C45U A67G | 1.94
U37C G74U | 0.2
U43C A129G | 1.1
A23U U122C | 1
A68U U102C | 2.04
U3C U70C | 0.76
G21C A126G | 1.63
U9A U100C | 1.68
A33G U38C | 1.41
A98U U131C | 2.12
A78G A126G | 0.15
C45U G48A | 1.78
U43A A55U | 2.41
U43C A94U | 1.77
G58A A118G | 0.52
U3A A125G | 0.39
A59G C101U | 0.26
A30U U131C | 1.07

Variant | self-cleavage
A66G A117U | 0.6
U39C U87A | 1.92
A55G C88U | 1.02
A60G U132A | 1.17
A24G A30C | 1.22
U72A A114U | 1.94
U9A U139C | 1.69
A90G U124A | 0.47
C6U A23G | 1.15
U70C A89U | 1.17
U103C U133C | 1.32
A59G U130C | 1.52
A24G A82U | 0.31
U19C A89U | 1.15
A67U U100G | 1.34
G41U A86U | 1.98
G48A A55G | 1.61
A36G C76A | 0.12
G53A G75A | 0.09
A27U C61U | 0.58
A56C A129G | 1.35
A66G U122C | 1.67
G50A U100G | 0.96
G28U A118U | 0.68

Variant | self-cleavage
A33G A126U | 0.86
A54U U122C | 1.27
A86G A89U | 1.86
G74A C128U | 0.13
C16U A22U | 1.32
U122A A140G | 1.17
U102A A114G | 0.43
A4G G20A | 0.82
U37C G83A | 2.15
U3C U72A | 0.17
A22G A64U | 0.62
G15A U43C | 1.35
A86U U103C | 1.31
A60G A90C | 0.79
C17U A110G | 0.05
G1A U108C | 0.05
U19C U102A | 1.29
U26C A91G | 1.26
A68G U87A | 0.96
A60C A111G | 0
U37C U127A | 2.07
A30G C128U | 1.78
A51C A110U | 0.82
U49C U100G | 1.72

Variant | self-cleavage
A54G U87C | 0.9
U70C A110U | 0.92
C25U A33G | 1.12
A5G A92G | 0.53
G8A U122C | 0.6
U39A U103C | 2.1
U43G A114G | 0.27
U12G C105U | 0.22
A24G C105U | 0.26
C25A A95G | 0.89
U37C A94G | 1.76
C34A A92C | 0.26
A23C A114U | 0.01
G83C | 0.35
G79A U108C | 0.01
A30G A33U | 1.18
U39C A116G | 0.83
U102C A116G | 0.7
A30G A98G | 0.76
U37C A110G | 0.13
A126G A140G | 1.28
A52U A69U | 1.98
A11U A98U | 1.82
G31U A90G | 1.32

Variant | self-cleavage
A11U A22G | 1.53
A111G A125G | 0.01
U43C A117G | 1.75
A67G A111G | 0.02
A96G A125U | 1.42
A98U U122C | 2
U39A A116U | 0.09
U49G A59G | 0.95
A56C A68G | 1.59
C109A U122C | 0.28
U49C A55G | 1.22
G20A U38G | 1.25
A11U A129U | 0.64
C42G A95G | 1.87
A96G G106U | 0.01
A82U U130C | 0.14
A55U A94U | 0.43
A111C U131C | 0
A78U U100C | 1.1
A52G A129G | 1.3
C10U A125G | 0.61
U2A A78C | 0.66
U9C U49G | 0.96
A11C A86G | 1.7

Variant | self-cleavage
U39C U100A | 0.56
U37A G137A | 2.24
G15U | 0.69
U39C U139C | 1.9
C107U A135G | 0.01
A24G A36G | 1.15
A89G A91G | 1.49
C16U A55G | 1.63
U122G G137A | 2.2
A64G A125U | 2.92
U122C A140C | 1.25
C46U U102A | 1.59
U87A A91G | 1.33
A78G A117U | 0.1
A89G A134G | 1.64
G7U | 1.23
A33G G93A | 1.14
A63G U70A | 1.47
A54G U124A | 0.9
A47U A117U | 0.71
U2C A55G | 1.15
A55G A94G | 1.39
U38A G74A | 0.21
A96C U100C | 2.01

Variant | self-cleavage
A5G C45A | 0.99
U132A | 1.53
A24G U122A | 1.19
U70C A116U | 0.34
A52U A59U | 1.99
A52G A95C | 0.6
A30U U103G | 0.03
G14A | 1.24
A11G A51U | 0.82
U43A A116G | 0.55
A69G U139C | 1.24
A78G C105U | 0.03
A47U G84U | 0.25
C10U G31U | 1.22
A110G U120C | 0.06
A4G U9C | 1.33
U2A U49C | 1.68
A90G G106C | 0
U87C A116C | 0.06
A30G A67C | 1.15
C16U A54G | 0.87
A30G A54U | 1.33
U19G A114U | 0.1
C105U U132C | 0.16

Variant | self-cleavage
G31U A68G | 1.26
U9A A135G | 1.41
A111U | 0.08
A55G U122C | 1.2
U2A A110G | 0.16
C6U A18G | 0.91
U72C G93A | 0.32
U12C A63G | 1.43
U49A A52G | 0.96
U2A G14C | 0.7
A4C C81U | 0.79
A95G C105G | 0.03
A64G C101U | 0.42
U57G A91G | 0.52
C88U A140G | 2.02
A24G U130G | 0.56
A55G A118G | 1.23
A51G U70A | 1.23
C10U A22U | 1.21
U87C C88A | 0.75
U12C A24G | 1.09
G99A A117G | 0.36
A22G U131C | 0.51
U12A A116G | 0.49

Variant | self-cleavage
A66U A114U | 0.04
A52G A114U | 0.14
A59G A134G | 0.34
G137C | 1.82
U26G U127A | 1.82
U49C A62U | 0.68
A23U A66U | 1.42
A126G G136A | 1.4
A13G C85U | 0.89
A64U U108C | 0.02
A11U A54G | 0
U39C A125U | 1.8
A111G U130A | 0.02
C32U A118G | 1.44
A33G A140U | 0.97
A82G A94G | 0.32
C76A A94G | 0.06
G106U A118G | 0.02
U19C G48U | 2.78
A69G A111G | 0.03
C81U C112U | 0.01
A54G A114U | 0.07
U39A A117U | 1.81
A60U U130C | 1.22

Variant | self-cleavage
U108A A117G | 0.02
A55G U139C | 1.72
A82G G138C | 0.66
U12C A67G | 1.33
U9A A135U | 1
U70A U139C | 1.06
U87A U102C | 1.71
C16U U39G | 1.27
U100C A114U | 0.16
G84A | 2.05
A56G U57C | 1.27
U37C C128A | 0.17
U3C U97C | 1.12
A63G A135U | 0.04
A11G A27G | 1.1
A82U U139A | 0.18
A89G A118G | 1.18
A24C A89G | 1.68
U87G U132C | 0.88
U2C C109U | 0.29
A33U A118G | 0.91
A55G U122A | 1.39

Source: the RNAGym collection of RNA variant scans (doi:10.7554/elife.90254)
